Source: the supplement of paper PMC12764529
± gives the half width of the 95% confidence interval.

Tests used:
[1] = folding stability dG unfold (combined trypsin and chymotrypsin); higher = more stable
Procedure, shortened: (§1)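 Unfolding free energy was derived, per protease or combined, by relating Bayesian-fitted K50 values from sequencing counts to a sequence-predicted unfolded-state K50 and a shared folded-state K50. The underlying digests exposed cysteine-free mini-proteins under 80 residues, in a PA-tagged cDNA display construct, to trypsin and chymotrypsin at 11 threefold-diluted concentrations and to a no-protease condition. A filter kept only designs with AlphaFold2 dimer inter-PAE above 15.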

[2] = folding stability dG unfold from trypsin proteolysis; higher = more stable
Procedure, shortened: as §1

[3] = folding stability dG unfold from chymotrypsin proteolysis; higher = more stable
Procedure, shortened: as §1

| Sequence | folding stability dG unfold [1] | folding stability dG unfold [2] | folding stability dG unfold [3] |
| --- | --- | --- | --- |
| SAGGFEFEFTNPDGKKIKVEIERHPEEGYIMLKIQYGGKPVETFPPGDEFEIPPDGIDAVIMFRLPPESAGG [r13_958_TrROS] | 2.91 ± 0.22 kcal/mol | 2.88 ± 0.15 kcal/mol | 3.22 ± 0.12 kcal/mol |
| SAGGIVVKVADGSYVRIVVYDPNNPVPRIETFPGGGVDDVIAAIAASPSFPNTVVYVERFDDGKPYPASAGG [r13_914_TrMRF] | 0.747 ± 0.075 kcal/mol | 0.871 ± 0.043 kcal/mol | 0.664 ± 0.055 kcal/mol |
| SAGGSAGGSAGGMAENLSPEQLRELAKELGLSEEDLEPGQVVRFRLPNGEVIEVRVEDESAGGSAGGSAGGS [r10_623_TrROS_Hall] | 0.913 ± 0.067 kcal/mol | 1.29 ± 0.033 kcal/mol | 0.372 ± 0.13 kcal/mol |
| SAGGSAGGSAGGKKLRIKVKNKKTGKEIEIEIDVEDKTIEEIAKELAKKLNFEVTEIEPVSAGGSAGGSAGG [r7_590_TrROS_Hall] | 2.74 ± 0.24 kcal/mol | 2.2 ± 0.18 kcal/mol | 2.9 ± 0.12 kcal/mol |
| SAGGSAGGSPRIVRVEVDPPPGGLGLARIEVEVVDPSTGVPRLERRTVPVPLGDWKKLLDFLGSAGGSAGGS [r12_691_TrMRF] | 2.23 ± 0.15 kcal/mol | 2.06 ± 0.051 kcal/mol | 2.25 ± 0.054 kcal/mol |
| SAGGSAGGSASSSTFPRRNYTVTITTDPSNGKKTVTVLNPATGEATTLTPEELEADPVLAEAVSAGGSAGGS [r12_817_JUSTAS] | 1.51 ± 0.043 kcal/mol | 1.05 ± 0.017 kcal/mol | 1.8 ± 0.021 kcal/mol |
| SAGAPSTREFEILELVPLPPGTTAEELRATLEREVELPDDSVARIRVRAVFLSPGPAFALVLYRVEVRESAG [r5_939_TrMRF] | 3.22 ± 0.12 kcal/mol | 3.15 ± 0.11 kcal/mol | 3.314 ± 0.015 kcal/mol |
| SAGGGLALRLEVETERVEREVFDADGRLVAREEVEVRRVRLELVPLPPAPPPPTVTVRPGDPRDPRLRSAGG [r13_508_TrROS_Hall] | 2.69 ± 0.13 kcal/mol | 1.53 ± 0.13 kcal/mol | 3.18 ± 0.04 kcal/mol |
| SAGGSAGGSAGGMIVIEVERKEGEEERKEVIVIPNDPEKAEAEAKKLAEEGPVEKVTIKKESAGGSAGGSAG [r3_310_JUSTAS] | 1.04 ± 0.28 kcal/mol | 0.243 ± 0.11 kcal/mol | 1.3 ± 0.066 kcal/mol |
| SAGGSDRVLVPAGPSDYDVLVVVTPGPGDLVGVDALVIHPDGTPLAVRGVLDPTTGGISPVAVDPLSAGGSA [r2_402_TrMRF] | 0.258 ± 0.038 kcal/mol | 0.28 ± 0.024 kcal/mol | 0.243 ± 0.051 kcal/mol |
| SAGGSAGGSNTITVFMKVDDPEDALDEISEEIRDLFPPGIEVEIQPEQNEDKRGWVQVTIEFKSAGGSAGGS [r20_122_TrROS] | 1.02 ± 0.2 kcal/mol | 1.04 ± 0.063 kcal/mol | 1.15 ± 0.33 kcal/mol |
| SMEPGELRLRAKVPLRIVNPDGEEIADIEIEVRSIEELEEAIAEAARELAERLGRPDAPVVIDDIEVEDESA [r9_376_TrMRF] | 0.482 ± 0.23 kcal/mol | 0.239 ± 0.19 kcal/mol | 0.643 ± 0.14 kcal/mol |
| SAGGAPNWKIEKIEIEYPGRKIEVWRHDNMWFIHIPAPPGYPIRIKIKIEPDNGETQTQERTFPIPPPSAGG [r13_191_TrROS] | 2.37 ± 0.35 kcal/mol | 1.75 ± 0.061 kcal/mol | 2.83 ± 0.073 kcal/mol |
| SAGMIEISEEGDTLTVTVPPGVSLEEVREYVEKKYPGMDLQEITETALPDGTTTVTFNVKKNPPSPKLLSAG [r5_110_JUSTAS] | 0.316 ± 0.16 kcal/mol | -0.658 ± 0.37 kcal/mol | 0.699 ± 0.23 kcal/mol |
| SAGGSAGGEIPPNIKKIETLPDDGWLMVKVDSPKDIREFFEDHGWEIKDVEEEGNTIHIPIKPKSAGGSAGG [r6_381_TrROS] | 0.79 ± 0.25 kcal/mol | 0.648 ± 0.072 kcal/mol | 0.893 ± 0.24 kcal/mol |
| SAGGSAGGSAGGGKLAIRVEIEPVRTETRLRADGSLETRTEFRVRIEIRPVGNPDDPRNNSAGGSAGGSAGG [r7_523_TrMRF] | 3.89 ± 0.073 kcal/mol | 2.89 ± 0.059 kcal/mol | 4.36 ± 0.056 kcal/mol |
| MKEITVTLPVPEEVLAAIRAGKPLPLEEIKERVKEEIAKRLGYKNVTIKSVKVEKLPDGSLVIKVKVEFLPS [r1_290_JUSTAS] | 4.15 ± 0.087 kcal/mol | 5.45 ± 0.43 kcal/mol | 3.58 ± 0.044 kcal/mol |
| SAGGSAGGDEVKIEVEVKKVKVKVRVRVKNEDGEEKEVEKEFEVEVVKVKIEFKSPEEAKKLGLSAGGSAGG [r6_149_TrROS_Hall] | 1.11 ± 0.27 kcal/mol | 1.14 ± 0.088 kcal/mol | 0.144 ± 0.42 kcal/mol |
| SAGGSAGGSAGGSKIENIKDIERNPNPDGHYMITIPNGWQIVVRMDKNGKMEIEIVPLKSAGGSAGGSAGGS [r4_177_TrROS] | 1.82 ± 0.15 kcal/mol | 1.87 ± 0.076 kcal/mol | 1.88 ± 0.039 kcal/mol |
| SAGGSAGGSAGVITVTKDPKTGKYTVTIETPSGPATTVEVSSEEEAKELAKKLGYDIDALSAGGSAGGSAGG [r11_1049_JUSTAS] | 3.82 ± 0.098 kcal/mol | 3.89 ± 0.14 kcal/mol | 3.78 ± 0.087 kcal/mol |
| SAGLEVVKKLAEELGFPVEILRVEYDPETGELTFEAVARPKDGKTRRVRIRIRVPKESDEVEIELEYFDSAG [r5_929_TrMRF] | 4.51 ± 0.1 kcal/mol | 4.67 ± 0.11 kcal/mol | 3.95 ± 0.082 kcal/mol |

| Sequence | folding stability dG unfold [1] | folding stability dG unfold [2] | folding stability dG unfold [3] |
| --- | --- | --- | --- |
| SAGGSAGGSAGGLRAKIVEIKEVKVKKLYKDPETNEWYEEEKTVKVIKIKIEPAKPGEKISAGGSAGGSAGG [r17_530_TrROS_Hall] | 0.947 ± 0.13 kcal/mol | 0.537 ± 0.08 kcal/mol | 1.14 ± 0.044 kcal/mol |
| SAGGWRYILRQIREAAKNGEEVTINFPPGMNPSFLLSWIRKENGAEVKPITVKPNPNGYGTINIKVKSAGGS [r16_318_TrROS] | 1.8 ± 0.073 kcal/mol | 1.39 ± 0.054 kcal/mol | 2.02 ± 0.057 kcal/mol |
| SAGGSAGGSAGGTIEELVKAGKTVKVRVRLKNGETLEVEIRPDEVVEFPNIEEIEVEEVSAGGSAGGSAGGS [r10_700_TrROS_Hall] | 1.51 ± 0.05 kcal/mol | 0.784 ± 0.016 kcal/mol | 1.86 ± 0.026 kcal/mol |
| SAGGMIVEEETKPTPPLPDGTLVTESKVTIYINGKKITTTVKTTTLPDGTKVVETTLKGKKLKIILESAGGS [r16_448_JUSTAS] | 2.98 ± 0.075 kcal/mol | 2.26 ± 0.07 kcal/mol | 3.193 ± 0.027 kcal/mol |
| SAGEIAEKLGFKVEDVSIQKEDGTYRIVVRFPMDDRPVVIMGDIKVEEKNGKRKIEIDIDIMPLPPDDPSAG [r5_516_TrROS] | 1.7 ± 0.086 kcal/mol | 1.89 ± 0.03 kcal/mol | 1.57 ± 0.054 kcal/mol |
| SAGGSAGGSAGKKKGKKPKKIKVKKIKLIVKDKETNEYYEKEITVNKDGTLTIKVKKLKKSAGGSAGGSAGG [r11_883_TrROS_Hall] | 2.75 ± 0.1 kcal/mol | 1.85 ± 0.083 kcal/mol | 3.07 ± 0.089 kcal/mol |
| SAGGSAGGSAPEVKIKVELFENENGELTATATIEVDGKLYKITVKFDKNGKIVEVKIEELPSAGGSAGGSAG [r3_165_TrROS_Hall] | 4.14 ± 0.45 kcal/mol | 2.83 ± 0.22 kcal/mol | 4.39 ± 0.27 kcal/mol |
| SAGGSAGGSAGMKVELSVAPDPATGEPVLLFHFEDFTLALNPNTGAIGVYLKDEVELFELSAGGSAGGSAGG [r17_544_TrMRF] | 2.03 ± 0.14 kcal/mol | 2 ± 0.13 kcal/mol | 1.98 ± 0.1 kcal/mol |
| SAGGSAGGSKKKKIEIIIVMSKEEAEKIAEELKKKYNIKEIKIKVIPLKKNSPKVKELLKKLKSAGGSAGGS [r12_649_TrROS_Hall] | 1.62 ± 0.37 kcal/mol | 1.03 ± 0.071 kcal/mol | 1.92 ± 0.12 kcal/mol |
| SAGGSAGGSMTLVLEVDSVEDALAAVEALLPPGYRVTIEVEERGGRLLVTITIEPAPAPPPEESAGGSAGGS [r12_195_TrROS_Hall] | 3.16 ± 0.071 kcal/mol | 1.92 ± 0.083 kcal/mol | 3.51 ± 0.075 kcal/mol |
| SAGIKEIAKKLGFPIHSVKPTEPDPENGKLKWTVIFRNEKNNYYVIEIDLDDPEKIEIERFPPGEEIPSAGG [r19_72_TrROS] | 1.39 ± 0.21 kcal/mol | 1.21 ± 0.13 kcal/mol | 1.61 ± 0.12 kcal/mol |
| SAGGSAGGSDPSEVRLTFTVTVELTFDAVLFYEPGTGRLVAVAPYLRVEVEVEVTLTFPADALSAGGSAGGS [r12_600_TrMRF] | 4.63 ± 0.21 kcal/mol | 3.17 ± 0.096 kcal/mol | 5.04 ± 0.11 kcal/mol |
| SAGGSAGGSKKKKKVKYKIKVINPEKPEVKEIEIEAENEEEAKKLAEELAKKYPGVKVEIEKTSAGGSAGGS [r12_601_TrROS_Hall] | 2.48 ± 0.095 kcal/mol | 1.08 ± 0.07 kcal/mol | 2.95 ± 0.064 kcal/mol |
| SAGGMPVRVLITYESGEIPVTIPVDPNKVVEAEVELEDKTVKITVDPKAKTIKVDAPPSFKFEVLDPSAGGS [r16_761_JUSTAS] | 0.277 ± 0.18 kcal/mol | 0.35 ± 0.13 kcal/mol | 0.257 ± 0.084 kcal/mol |
| SAGGSAGGSKETLTIKIKVEVKDENGEKKEVTVTLTIKAETKEEAEALLKELKEKYPNVKVEPSAGGSAGGS [r12_1043_TrROS_Hall] | 2.93 ± 0.23 kcal/mol | 2.7 ± 0.38 kcal/mol | 2.9 ± 0.11 kcal/mol |
| SAGGSPGQPYYIMIKLEWENPEDGEEHTFDIMFPVKSAEDAKDYILKELLPPGHKLKIDDISIMPMSAGGSA [r2_320_TrROS] | 1.4 ± 0.15 kcal/mol | 1.48 ± 0.022 kcal/mol | 1.19 ± 0.1 kcal/mol |
| SAGGSAGALLVRFNDPELVRELIEALPFDALVERDPDDPNVLLVTLFTDGPLEEAVRAVREALGLESAGGSA [r15_118_TrMRF] | 2.98 ± 0.086 kcal/mol | 2.35 ± 0.039 kcal/mol | 3.25 ± 0.04 kcal/mol |
| SAGGGREIKVEFEIPHPNGNQMRITVTIYRSPGGIRIKIPVSYTDPEYRDYMREWAEYLARRIAKELSAGGS [r8_416_TrROS] | 3.46 ± 0.047 kcal/mol | 3.05 ± 0.089 kcal/mol | 3.571 ± 0.022 kcal/mol |
| SAGRKIPIMFTWPNGDPERMEEIAIEFANYLQPNGLPNVTIKIERKPVKDPENGKRRYVYMVTIEVQPPSAG [r5_49_TrROS] | 2.44 ± 0.2 kcal/mol | 1.92 ± 0.043 kcal/mol | 2.89 ± 0.089 kcal/mol |
| SAGGARFEFTTPEGDRVTVELETTADELRVRVTVHRENEPFTLEATFPLPPPAPPAVPADVPGPSLLLSAGG [r13_691_TrMRF] | 1.91 ± 0.21 kcal/mol | 2.06 ± 0.15 kcal/mol | 1.62 ± 0.089 kcal/mol |
| SAGGRVDVRVERVGEGAVITLLADVEDPEPLVELLEASGLPVELARIEPVRDPVTGRLLVRAVFRVPSAGGS [r16_699_TrMRF] | 1.13 ± 0.095 kcal/mol | 1.12 ± 0.069 kcal/mol | 1.14 ± 0.082 kcal/mol |
